In patent US20210162028A1, “Methods for Inducing Intermittent Fasting and Modulating Autophagy” (The Hong Kong Polytechnic University, priority 2019, published 2021):
“Also recorded” adds a separate entry of the source.

Legend:
[1] = Inverted grid hanging test; format: in vivo, mouse
brown adipocyte = assay: Transmission electron microscopy of interscapular brown adipose tissue; format: in vivo, mouse; conditions: HFD-fed male mice, 600 U once a week, 4 weeks
Excerpt: FIG. 52 illustrates the interscapular brown adipose tissue (iBAT) examined by transmission electron microscopy at Day 3 and Day 7 of a 7-day intermittent fasting cycle after N-ABD094-rhArg injection. (A) The BAT of HFD-fed male mice administered with 600 U N-ABD094-rhArg (SEQ ID NO: 50) [HFD (rhArg) group] once a week for 4 weeks, in comparison to that of HFD-fed mice treated with vehicle [HFD (vehicle) group] […] (C) As examined under 5000× magnification, autophagosome engulfed the lipid droplet and breaking into tiny particles.
After prolonged feeding on a HFD, there was a further increase in the size (FIG. 53A) and weight of the interscapular BAT (FIG. 53B) in vehicle-treated DIO mice [HFD (vehicle) group] in comparison to the lean control mice [CD (vehicle) group], which was correlated with the presence of massive amount of enlarged white-like unilobular cells (FIG. 53A). As observed under transmission electron microscopy, brown adipocyte in mice fed with HFD [HFD (vehicle) group] had massive enlarged lipid droplets (FIG. 52A). […] Many autophagosomes were actively forming and engulfing the lipid droplets (FIG. 52B). The autolysosome was also found to be breaking down small lipid droplets, mixing with plenty of lysosomes in the structure (FIG. 52C).

[2] = Insulin tolerance test (ITT); format: in vivo, mouse; conditions: 17-month old C57BL/6J male mice on chow diet; once a week; at 13 weeks
[3] = Blood pressure and heart rate by tail-cuff method; format: in vivo, mouse; conditions: DIO C57BL/6J male mice on HFD; about 600 U once a week; measured at 12 and 27 weeks
Excerpt: FIG. 9 illustrates that administration of N-ABD094-rhArg (SEQ ID NO: 50) to DIO male mice fed a HFD [HFD (rhArg) group] in FIG. 1 for 34 weeks could reduce heart mass, and lower blood pressure and heart rate to levels similar to that of the lean control mice [CD (vehicle) group]. (A) Heart mass. (B-E) Systolic and diastolic blood pressure (B, D) and heart rate (C, E) measured respectively at 12 weeks (B, C) and 27 weeks (D, E) after rhArg treatment by tail-cuff method using Noninvasive Blood Pressure Monitoring System (CODA Scientific). *P<0.05, one-way ANOVA followed by Bonferroni test. Data are expressed as mean±SEM.
Other than liver, obesity is also commonly associated with lipid accumulation in the kidney (renal steatosis) and heart (cardiac steatosis), causing lipotoxicity and dysfunction of these organs. Indeed, there was an increase in kidney and heart mass in DIO mice treated with vehicle (FIG. 8A and FIG. 9A).

hepatocyte = assay: Transmission electron microscopy of liver (hepatocytes); format: in vivo, mouse; conditions: for TEM of liver: autophagosomes / TEM of liver: lipid droplets: DIO C57BL/6J male mice on HFD, 3 weeks, Day 3
Excerpt: FIG. 47 illustrates the liver examined by transmission electron microscopy at Day 1, Day 3, Day 5 and Day 7 of the 7-day intermittent after N-ABD094-rhArg injection.
The presence of autophagosome in liver after treatment for 3 weeks were examined by TEM (FIGS. 62, 63 and 64).
The presence of autophagosome in liver after treatment for 3 weeks were examined by transmission electron microscopy (FIGS. 71 and 72).

[4] = system: primary culture of mouse hypothalamic neurons; assay: Western blot of primary culture of mouse hypothalamic neurons; format: cell-based; conditions: 2 U/mL
Excerpt: The arcuate nucleus in the hypothalamus has received extensive attention as an integrator and regulator of energy homeostasis and appetite. These neurons can rapidly sense metabolic fluctuations in the blood. Others have recently implicated autophagy in central appetite regulation and leptin sensitivity (Park et al., Nature Communications. 2020; 11: 1914). Knockdown of an essential autophagy gene autophagy-related 7 (Atg7), leads to accumulation of p62 in POMC neurons, resulting in an increase in bodyweight and appetite. Besides, it has been shown that amino acid deprivation/imbalance can trigger a reduction in food intake via eIF2α/ATF4 pathway [Maurin et al., Cell Rep. 2014 Feb. 6(3): 438-444]. In our study, mature hypothalamic neurons (after 14 day in vitro culture) were exposed to vehicle or 2 U/mL N-ABD094-rhArg (SEQ ID NO: 50) for 1 hr, 4 hrs, 8 hrs or 24 hrs. After treatment, proteins were harvested from whole cell lysate of neurons and subjected to western blot analysis for examining the short-term effect of arginine depletion on hypothalamic neurons. Autophagy markers (LC3B and p62) were analyzed. […] These findings supported that N-ABD094-rhArg (SEQ ID NO: 50) induced an autophagic flux in hypothalamic neurons.

[5] = Insulin tolerance test (ITT); format: in vivo, mouse
Excerpt: In terms of reversing insulin resistance on pre-existing obese mice, insulin tolerance test (ITT) was employed (FIG. 59).
In terms of reversing insulin resistance on pre-existing obese mice, insulin tolerance test (ITT) was employed (FIG. 68A).

[6] = 300 U/week rhArg and/or 300 mg/kg metformin
[7] = rhArg weekly and/or 0.33 mg RA daily
[8] = HFD-fed male mice, 600 U once a week, 4 weeks

B1: N-ABD094-rhArg: recombinant human arginase fused to albumin binding domain ABD094 (SEQ ID NO: 50); engineered long-acting arginine-depleting enzyme (protein)
chain: MHHHHHHDEAVDANSLAEAKEAANAELDSYGVSDFYKRLIDKAKTVEGVEALKDAILAALPSGSNNNNNNGSGGMSAKSRTIGIIGAPFSKGQPRGGVEEGPTVLRKAGLLEKLKEQECDVKDYGDLPFADIPNDSPFQIVKNPRSVGKASEQLAGKVAEVKKNGRISLVLGGDHSLAIGSISGHARVHPDLGVIWVDAHTDINTPLTTTSGNLHGQPVSFLLKELKGKIPDVPGFSWVTPCISAKDIVYIGLRDVDPGEHYILKTLGIKYFSMTEVDRLGIGKVMEETLSYLLGRKKRPIHLSFDVDGLDPSFTPATGTPVVGGLTYREGLYITEEIYKTGLLSGLDIMEVNPSLGKTPEEVTRTVNTAVAITLACFGLAREGNHKPIDYLNPPK
modifications: N-ABD094-rhArg, Synthesized in the Lab
notes: engineered long-acting arginine-depleting enzyme
[1]; DIO C57BL/6J male mice on HFD, weekly for 42 weeks
  Inverted grid hanging test: endurance (latency to fall): endurance even higher than mice in CD (vehicle) group
[1]; DIO ICR female mice on HFD, weekly, at 54 weeks
  Inverted grid hanging test: performance: significantly better than mice in HFD (vehicle) group
Brown adipocyte
  TEM of BAT, Day 3: autophagy/lipophagy: active lipophagy at Day 3
  TEM of BAT, Day 7: autophagosomes and autolysosomes: continuous active autophagy (lipophagy) was taking place; also recorded: autophagosome and autolysosome numbers had prominently reduced by Day 7
Brown adipocyte; compared with Day 3
  TEM of BAT, Day 7: mitochondria: relatively large amount of mitochondria; also recorded: an increase in mitochondria number was observed
[2]
  Insulin sensitivity in ITT: significantly improve insulin sensitivity; also recorded: effectively improve insulin sensitivity
[3]
  Blood pressure and heart rate: levels similar to the age-matched lean control mice
hepatocyte; [6]
  TEM of liver: autophagosomes: autophagosome was rarely seen
  TEM of liver: lipid droplets: significant decrease in lipid droplet size
hepatocyte; 300 U/week rhArg and/or 300 mg/kg metformin, listed as N-ABD-rhArg (SEQ ID NO: 50)
  TEM of liver: autophagosomes: no autophagosome is observed
hepatocyte; [7]
  TEM of liver: autophagosomes: autophagosome was rarely seen
  TEM of liver: lipid droplets: significant decrease in lipid droplet size
hepatocyte; rhArg weekly and/or 0.33 mg RA daily, listed as N-ABD-rhArg (SEQ ID NO: 50)
  TEM of liver: autophagosomes: no autophagosome is observed
hepatocyte; [8]
  TEM of liver, Day 1 of the 7-day cycle: autophagosomes and autolysosomes were found in the hepatocye
  TEM of liver, Day 3 of the 7-day cycle: extensive lipophagy was observed
  TEM of liver, Day 5 of the 7-day cycle: autolysosome and lipophagy became rare
  TEM of liver, Day 7 of the 7-day cycle: no autophagosome and no lipophagy was observed
[4]; 24 hrs
  ATF4 level: dramatic increase
[4]; after 1 hr and 4 hrs
  Level of LC3B-II: significantly increased
[4]; after 1 hr, 4 hrs, 8 hrs or 24 hrs
  Phosphorylation level of p70S6K1: significantly decreased
[4]; after 4 hrs and 8 hrs
  Level of p62: significantly decreased
[4]; after 24 hrs
  Proportion of glycosylated POMC: significantly increased
[4]; at 8 hrs or 24 hrs
  Phosphorylation level of eIF2α: significant increase
[5]; 16-month old DIO C57BL/6J male mice on HFD, once a week, at 9 weeks
  Insulin sensitivity in ITT: markedly reverse pre-existing insulin resistance; also recorded: effectively reverse insulin resistance
[5]; DIO C57BL/6J male mice on HFD, 300 U/week rhArg and/or 300 mg/kg metformin, after 6 weeks
  Insulin sensitivity in ITT: marginal effect on improving insulin sensitivity but not reach statistical significant
[5]; DIO C57BL/6J male mice on HFD, 600 U once a week, after 2 weeks (reduced daily food intake experiment)
  Insulin sensitivity in ITT: marked increase in insulin sensitivity by 2 weeks after treatment
[5]; DIO C57BL/6J male mice on HFD, 600 U once a week, at 2 and 4 weeks (artificial IF experiment)
  Insulin sensitivity in ITT: reversal of insulin resistance and marked increase in insulin sensitivity by 2 weeks after treatment; also recorded: significant improvement in insulin sensitivity by 2 weeks
[5]; DIO C57BL/6J male mice on HFD, about 600 U once a week, at 16 and 32 weeks
  Insulin sensitivity in ITT: complete reversion of insulin resistance; also recorded: effectively reverse insulin resistance
[5]; DIO C57BL/6J male mice on HFD, rhArg weekly and/or 0.33 mg/day RA, after 6 weeks
  Insulin sensitivity in ITT: marginal effect on improving insulin sensitivity but not reach statistical significant
[5]; DIO ICR female mice on HFD, once a week, at 15 and 31 weeks
  Insulin sensitivity in ITT: better insulin sensitivity than age-matched mice in CD (vehicle) group
